Test results published in article doi:10.1101/2022.02.18.481027, “Structural insights into the assembly and activation of IL-27 signalling complex” (bioRxiv, 2022).

T1: Murine GP130 ectodomain with C-terminal biotin acceptor peptide, biotinylated (murine, UniProt Q00560 23-319, biotin on the biotin acceptor peptide (BirA ligase))
T1 chain: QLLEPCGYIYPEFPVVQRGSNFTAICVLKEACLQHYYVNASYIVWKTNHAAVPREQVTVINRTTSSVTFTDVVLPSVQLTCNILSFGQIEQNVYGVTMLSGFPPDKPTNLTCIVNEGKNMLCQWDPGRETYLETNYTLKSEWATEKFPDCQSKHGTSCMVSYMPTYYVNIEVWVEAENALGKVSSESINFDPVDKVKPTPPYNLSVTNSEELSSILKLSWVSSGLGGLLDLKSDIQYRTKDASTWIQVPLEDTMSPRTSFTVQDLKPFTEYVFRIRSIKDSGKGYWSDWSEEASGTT

T2: Murine IL-27Rα ectodomain (amino acids 28-224), N-terminally biotinylated (murine, UniProt O70394 28-224, N-terminal biotin (EZ-Link Sulfo-NHS-SS-Biotin, at pH 6.5))
T2 chain: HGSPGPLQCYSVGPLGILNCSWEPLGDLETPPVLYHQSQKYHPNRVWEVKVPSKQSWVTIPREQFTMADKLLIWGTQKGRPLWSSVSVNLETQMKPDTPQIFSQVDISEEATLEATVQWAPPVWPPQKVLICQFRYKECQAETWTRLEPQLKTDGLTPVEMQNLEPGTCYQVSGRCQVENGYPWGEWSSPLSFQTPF

T3: p28 (IL-27p28), recombinant, alone (murine, UniProt Q8K3I6 29-234)
T3 construct: IL-27p28 (p28) without EBI3; the construct is not described; The methods of expression name no p28 construct; source: recombinantly produced
T3 sequence (looked up): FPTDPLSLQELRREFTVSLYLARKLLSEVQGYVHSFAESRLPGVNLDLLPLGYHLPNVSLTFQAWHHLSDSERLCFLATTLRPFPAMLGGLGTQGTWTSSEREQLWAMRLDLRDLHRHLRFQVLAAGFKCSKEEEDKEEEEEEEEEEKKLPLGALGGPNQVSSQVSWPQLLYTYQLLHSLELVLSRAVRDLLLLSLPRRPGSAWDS

B1: Murine IL-27, linker-connected single-chain variant (p28+EBI3) (ligand)
chain 1: YTETALVALSQPRVQCHASRYPVAVDCSWTPLQAPNSTRSTSFIATYRLGVATQQQSQPCLQRSPQASRCTIPDVHLFSTVPYMLNVTAVHPGGASSSLLAFVAERIIKPDPPEGVRLRTAGQRLQVLWHPPASWPFPDIFSLKYRLRYRRRGASHFRQVGPIEATTFTLRNSKPHAKYCIQVSAQDLTDYGKPSDWSLPGQVESAPHKP
chain 2: T3 sequence (looked up)
B2: Murine IL-27Rα ectodomain (amino acids 28-224), N-terminally biotinylated (receptor, UniProt O70394 28-224, looked up)
chain: T2 chain
modifications: N-terminal biotin (EZ-Link Sulfo-NHS-SS-Biotin, at pH 6.5)
notes: murine IL-27Rα, amino acids 28-224; also called biotinylated IL-27Rα; source: baculovirus, Trichoplusia ni (High Five) cells, secreted, purified (Ni-NTA, SEC), biotinylated in vitro

Columns and labels:
[1] = molecular target: T1, Murine GP130 ectodomain with C-terminal …; experiment: SPR
[2] = molecular target: T2, Murine IL-27Rα ectodomain (amino acids …); experiment: SPR
[3] = molecular target: T3, p28 (IL-27p28), recombinant, alone; experiment: SPR; biotinylated IL-27Rα or GP130 immobilised on a streptavidin chip (Series S Sensor SA), p28 flowed over; equilibrium analysis; 10 mM HEPES, 150 mM NaCl, 0.05% TWEEN-20, 0.5% BSA; Biacore T100; conditions: both partners purified

Binder | koff [1] [s⁻¹] | koff [2] [s⁻¹] | Kd [3] [nM]
B1 | 0.021 | 0.001 | 
B2 |  |  | 2800
